Experimental data published in US20160311918A1, “Anti-Ron Monoclonal Antibodies as a Cytotoxic Drug Delivery System for Targeted Cancer Therapy” (TEXAS TECH UNIVERSITY SYSTEM, priority 2013, published 2016).
“Also recorded” adds a separate entry of the source.

Key:
RON-β chain (mature RON) = target: T1, RON-β chain (mature RON) (Homo sapiens, UniProt Q04912); assay: Western blot of RON expression in CRC cells; type: cell-based; conditions: 36 h after treatment, 5 μg/ml
T1 construct: We selected CRC cell lines LoVo, DLD1, HT29, HCT116, and SW620 expressing variable levels of RON as the cellular model; host or cells: HCT116, HT29, SW620

[1] = system: HT29, HCT116, and SW620 cells; assay: Cell cycle analysis by flow cytometry; type: cell-based, human; conditions: 5 μg/ml
[2] = system: HT29-Luc2 xenograft tumor; assay: HT29-luc2 mouse xenograft tumor model; type: in vivo; conditions: for tumor growth inhibited: five injection regimen
Description: Athymic nude mice (five mice per group) were subcutaneously inoculated with 5×10^6 HCT116, HT29, and SW620 cells followed by injection of 20 mg/kg Zt/g4-DM1 through tail vein. FIG. 4A: Tumor growth from HT29-luc2 or HCT116-luc2 cells was determined by measuring average photon intensity (left panel). SW620-derived tumor growth was monitored by measuring tumor volume (FIG. 4B) (right panel). FIG. 4C: Tumor images with photon emission or caliper measurement at day 16 are presented. The scale from minimal to maximal is set at 300 to 35,000 photons per second. The percentages of inhibition were calculated from the average photon emission (for HT29 and HCT116 cells) or tumor volume (for SW620 cells). FIG. 4D: Individual tumors from different groups were weighed at day 28. The percentages of inhibition were calculated by a formula: (average tumor weight from Zt/g4-DM1 treated group/average tumor weight from control mice)×100%;
FIGS. 5A to 5F show the evaluation of different doses of Zt/g4-DM1 on tumor growth and RON expression. FIG. 5A: Effect of multi-dose of Zt/g4-DM1 on tumor growth was tested in HT29 cell-induced tumors. Tumor-bearing mice were treated with different doses of Zt/g4-DM1 every four days for a total of five injections ( ? ). Tumor growth was determined by the average bioluminescence intensity. FIG. 5B: An IC50 value based on the average bioluminescence intensity from individual groups at day 31 was calculated using GraphPad Prism 6 software. FIG. 5C: Bioluminescence images of individual tumors from each group at day 31 are shown. The percentages of inhibition were calculated from the average photon emission. The color scale from minimal to maximal is set at 300 to 35,000 photons per second. FIG. 5D: Individual tumors from different groups were collected and weighed at day 31, 35, and 43, respectively. The percentages of inhibition were calculated as detailed in FIG. 4C. FIG. 5E: Samples of HT29 cell-derived xenograft tumors from both control and 15 mg/kg Zt/g4-DM1-treated mice at day 31 were processed for histological examination. […] FIG. 5F: Western blot analysis of RON expression in tumors samples from both control and 15 mg/kg Zt/g4-DM1-treated mice. Densitometry analysis was performed to determine the levels of RON expression;
Mouse xenograft CRC model and anti-RON ADC treatment: All mice studies were approved by the institutional animal care committee. Female athymic nude mice at 6 weeks of age (Taconic, Cranbury, N.J.) were injected with 5×10^6 HT29-Luc2, HCT116-luc2, or SW620 cells in the subcutaneous space of the right flank as previously described (18,33). Mice were randomized into different groups (five mice per group). […] The single-dose group received a tail vein injection of 20 mg/kg Zt/g4-DM1 in 0.1 ml PBS followed by observation for 28 days. The multi-dose study was performed by treating mice with Zt/g4-DM1 at 1, 3, 7, 10, and 15 mg/kg every four days for a total of five injections. Bioluminescence from individual tumors was measured every four days using Caliper IVIS image system (PerkinElmer). Tumor volumes from SW620-derived tumors were measured according to a formula: V=pi/6×1.58×(length×width)^3/2 (18,33). Animals were euthanized when tumor volumes exceeded 2000 mm^3 or if tumors became necrotic or ulcerated through the skin.
The inventors first determined the efficacy of a single dose of Zt/g4-DM1 at 20 mg/kg body weight on tumors derived from HCT116, HT29, and SW620 cells. Tumor growth by HCT116-luc2 and HT29-luc2 cells was measured by bioluminescence emitted from tumor cells. SW620-mediated tumors were evaluated by tumor volume (18,34).

[3] = system: PDAC cell-mediated tumor growth; assay: Mouse xenograft PDAC model; type: in vivo; conditions: mouse PDAC xenograft models
Description: Mouse xenograft PDAC model and anti-RON ADC treatment: Female athymic nude mice were injected with 5×106 L3.6PL, BxPC-3, or FG cells into the subcutaneous space of the right flank. Treatment began when all tumors have reached an average tumor volume of 100 to 200 mm3 The single-dose effect was studied by injection of 20 mg/kg Zt/g4-DM1. Tumor volumes were determined every four days using a previously described formula: V=pi/6×1.58×(length×width)3/2.

[4] = system: three CRC cell lines (HCT116, HT29, SW620); type: cell-based, human; parameters: cell death: dose or concentration left out as unconfirmed
Description: Cell viability was determined by the MTS assay. […] Morphological changes were observed under the Olympus BK-41 inverted microscope and photographed. […] FIG. 3D: Cell death percentages were determined by the trypan blue exclusion method.
Cell viability and death assays: Cell viability 72 h after Zt/g4-DM1 treatment was determined by the MTT assay (22). Viable or dead cells were determined by the trypan blue exclusion assay. A total of 900 cells were counted from three individual wells to reach the percentages of dead cells.

[5] = 15 mg/kg every four days x5, day 31

T1 sequence (Q04912 310-1400 limits assumed): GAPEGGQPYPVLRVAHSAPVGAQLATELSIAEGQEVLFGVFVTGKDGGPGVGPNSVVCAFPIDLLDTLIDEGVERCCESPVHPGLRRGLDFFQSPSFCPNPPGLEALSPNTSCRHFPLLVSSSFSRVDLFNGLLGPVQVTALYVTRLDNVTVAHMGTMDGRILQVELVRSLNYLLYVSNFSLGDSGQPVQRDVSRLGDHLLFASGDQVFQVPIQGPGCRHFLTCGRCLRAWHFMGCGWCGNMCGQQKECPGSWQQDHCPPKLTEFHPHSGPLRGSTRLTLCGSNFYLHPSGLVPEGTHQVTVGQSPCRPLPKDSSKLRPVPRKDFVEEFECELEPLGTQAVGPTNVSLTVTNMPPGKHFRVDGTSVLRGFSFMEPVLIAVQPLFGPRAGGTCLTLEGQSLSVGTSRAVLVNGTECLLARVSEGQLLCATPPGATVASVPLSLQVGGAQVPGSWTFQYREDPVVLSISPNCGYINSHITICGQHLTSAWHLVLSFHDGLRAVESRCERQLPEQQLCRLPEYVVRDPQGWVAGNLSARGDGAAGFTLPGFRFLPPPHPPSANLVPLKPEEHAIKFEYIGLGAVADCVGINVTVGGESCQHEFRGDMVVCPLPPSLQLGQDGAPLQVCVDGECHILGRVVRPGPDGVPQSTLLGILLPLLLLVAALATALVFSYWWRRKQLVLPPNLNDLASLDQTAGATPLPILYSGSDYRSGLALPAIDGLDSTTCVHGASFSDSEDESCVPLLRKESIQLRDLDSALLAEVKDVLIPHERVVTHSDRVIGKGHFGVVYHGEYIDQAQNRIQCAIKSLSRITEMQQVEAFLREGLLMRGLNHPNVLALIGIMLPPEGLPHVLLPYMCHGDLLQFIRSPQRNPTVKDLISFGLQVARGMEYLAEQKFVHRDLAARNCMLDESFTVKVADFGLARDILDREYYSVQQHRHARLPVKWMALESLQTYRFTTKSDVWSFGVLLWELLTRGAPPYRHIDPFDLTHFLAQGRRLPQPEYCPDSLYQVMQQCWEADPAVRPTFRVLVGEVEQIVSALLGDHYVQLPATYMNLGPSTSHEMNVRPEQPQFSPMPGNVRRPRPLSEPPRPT
T1 sequence (Q04912 25-304 limits assumed): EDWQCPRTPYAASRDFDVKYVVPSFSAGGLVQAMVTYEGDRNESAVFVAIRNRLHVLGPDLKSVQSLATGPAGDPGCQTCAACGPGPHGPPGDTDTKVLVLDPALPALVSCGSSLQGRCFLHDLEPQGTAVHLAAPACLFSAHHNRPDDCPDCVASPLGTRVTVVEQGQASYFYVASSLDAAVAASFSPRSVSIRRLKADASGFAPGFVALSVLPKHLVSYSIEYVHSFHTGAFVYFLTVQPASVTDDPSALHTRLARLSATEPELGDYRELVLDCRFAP

B1: Zt/g4-DM1: anti-RON mouse mAb Zt/g4 conjugated to maytansinoid DM1 via non-reducible thioether linkage (SMCC), DAR about 4:1 (conjugate)
VH: EVQLQQSGAELVKPGASVKLSCTTSGFNIIDTYIHWVNQKPDQGLEWIGRIDPADGNRKSDPKFQVKATITVDTSSNTAYLQLSSLTSGDTAVYYCARGYGNLNAMDSWGQGTSVTVSS
VL: DIQMNQSPSSLSASLGDTITITCHASQNINVWLNWYQQKPGNIPKLLIYKASNLHTGVPSRFSGSGSGTGFTLTISSLQPEDIATYYCQQGQSYPLTFGGGTKLEIK
Question: Which results are given for B1?
Answer: RON-β chain detected (RON-β chain (mature RON)): Less than 20%; time at which cell cycle profile changes were observed [1]: ≤ 3 h; effect on cell cycle ([1]; three CRC cell lines): dramatic increase in G2/M phase; inhibition of tumor growth ([2]; 1 mg/kg every four days x5): no inhibition of tumor growth; inhibition of tumor growth ([2]; 3 mg/kg every four days x5): no inhibition of tumor growth; inhibition by average photon emission ([2]; 7 mg/kg every four days x5, day 19 to 43): more than 80%; inhibition by tumor weight ([2]; 7 mg/kg every four days x5, day 43): Significant inhibition was still observed; tumor growth inhibited ([2]; 7 mg/kg): more than 90%; inhibition by average photon emission ([2]; 10 mg/kg every four days x5, day 31): More than 95%; inhibition by tumor weight ([2]; 10 mg/kg every four days x5, day 43): Significant inhibition was still observed; tumor growth inhibited ([2]; 10 mg/kg): more than 90%; inhibition at average tumor weight [2, 5]: 90%; inhibition by average photon emission [2, 5]: More than 95%; average percentage of dead areas in a tumor mass ([2]; 15 mg/kg, day 31, H&E staining): 65%±7.4; RON expression in treated tumors ([2]; 15 mg/kg, day 31, Western blot, control 100%): 16.44%±5.75; tumor growth inhibited ([2]; 15 mg/kg): more than 90%; IC50 dose (dose achieving 50% tumor inhibition) ([2]; multi-dose, average photons at day 31): 5.01 mg/kg; inhibition by average bioluminescence intensity ([2]; single dose 20 mg/kg, day 16): More than 95%; inhibition rate by average tumor weight ([2]; single dose 20 mg/kg, day 28): 50.98%; inhibition of PDAC xenograft tumor growth [3]: highly effective in inhibiting PDAC cell-mediated tumor growth; also recorded: highly effective in inhibition of xenograft PDAC growth; IC50 cell death [4]: 5 to 7 µg/mL; cell death ([4]; 72 h): More than 50%
